Where “and” joins values, the source holds several entries; their conditions need not be identical. Equal values may be shown once.

Test [1] addresses human IL-6 (as added in the B9 and 7TD1 bioassays) (human) (UniProt P05231).
Test [2] shares this target. Nature of the test: cell-based or functional assay.
Test [3] has as its target T1, eukaryotically produced human IL-6 (human, UniProt P05231 30-212).
T1 construct: also called eukIL-6; Euk IL-6
Nature of the test: SPR; periplasmic fraction.
Procedure: (§1) From the washing phase the off-rate (kd) was determined, while from the injection phase the on-rate (ka) was calculated using the concentration and off-rate as parameters.

In test [4] the target is T2, bacterially produced human IL-6 (human, UniProt P05231 30-212).
T2 construct: also called bactIL-6; prokaryotic IL-6
The experiment in a line: SPR; periplasmic fraction.
Procedure: as §1

The target of test [5] is T1, eukaryotically produced human IL-6. The experiment in a line: SPR; purified Fab; IL-6 coated on CM5 chip.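 Note: dissociation rate taken from the wash phase, association rate fitted over the injection phase with analyte concentration and dissociation rate as inputs.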
Procedure: as §1
The target of test [6] is T2, bacterially produced human IL-6. Nature of the test: SPR; purified Fab; IL-6 coated on CM5 chip.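 Note: dissociation rate taken from the wash phase, association rate fitted over the injection phase with analyte concentration and dissociation rate as inputs.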 Background: SPR reads the build-up and loss of mass on a sensor chip optically.
Procedure: as §1
The target is the same in test [7]. Nature of the test: SPR; periplasmic fraction; ratio bact to euk IL-6.
Procedure: as §1
The next test addresses T3, human IL-6 (human, UniProt P05231 30-212).
T3 construct: Used where the text says only IL-6 or human IL-6 (crystals: rh IL-6 from Immunotools; cell assays) and for values averaged over the bacterial and eukaryotic IL-6 channels; also called interleukin-6; rh IL-6
The experiment in a line: SPR; periplasmic fraction; average of the IL-6 channels. Also noted: unit not given here.

Test [8] deals with T4, bacterially produced human IL-6 (human, UniProt P05231 30-212).
T4 construct: Immobilised on the Biacore chip; also called BACT IL-6 (2-1); bactIL-6
The experiment in a line: SPR (Biacore), purified Fab.

For test [9], the target named is T5, eukaryotically produced human IL-6 (human, UniProt P05231 30-212).
T5 construct: Immobilised on the Biacore chip; also called Euk IL-6; EUK IL-6 (3-1)
Nature of the test: SPR (Biacore), purified Fab.

Test [10] has as its target IL-6 surfaces of Table 8 (Bact, euk, cyno), average. The experiment in a line: SPR (Biacore), off-rate screen.
The target in test [11] is T6, bacterially produced cynomolgus monkey IL-6 (cynomolgus monkey, UniProt P79341 28-212, limits assumed).
T6 construct: also called bact-cy IL-6; HIS-cyIL-6
Nature of the test: off-rate of Fab 111A7 variant on bact-cy IL-6 (binding kinetics, SPR presumed; n = 3).

Test [12] has as its target IL-6 (bact-hIL-6, euk-hIL-6 and bact-cy IL-6; 'average binding' of Table 21). Nature of the test: average binding level in the off-rate screen (unit not given; n = 3).
Test [13] concerns the target T7, human IL-6 (as added in the B9 and 7TD1 bioassays) (human, UniProt P05231 30-212). Nature of the test: cell-based or functional assay.
Test [14] addresses T7, human IL-6 (as added in the B9 and 7TD1 …). Nature of the test: cell-based or functional assay. The source holds these as a separate data set.
Test [15] has the same target. The experiment in a line: cell-based or functional assay. The source holds these as a separate data set.
The target of test [16] is T2, bacterially produced human IL-6. Nature of the test: SPR; purified Fab; ratio bact to euk IL-6.
The target of test [17] is T1, eukaryotically produced human IL-6. The experiment in a line: SPR; purified Fab.
Test [18] has as its target T2, bacterially produced human IL-6. The experiment in a line: SPR; purified Fab.
Test [19] addresses T7, human IL-6 (as added in the B9 and 7TD1 …). Nature of the test: cell-based or functional assay. This is another data set of the same source.
In test [20] the target is human IL-6 (as added in the B9 and 7TD1 bioassays) (human) (UniProt P05231). The experiment in a line: cell-based or functional assay. This is another data set of the same source.

Consider “CNTO136 (benchmark anti-IL-6 antibody, humanized variant of CNTO328)”, for which, in [1], the IC50 (read off the curve), B9 cell proliferation was determined as 0.2 pM. In [2], this molecule returned an IC50, 7TD1 cells of 0.19 pM and a Potency relative to 68F2, 7TD1 cells of 3.49.

B1: Fab 24A3 (Fab, V domains shown)
VH: QVQVQESGGGLVQPGGSLRLSCAASGFTFSNYAMSWVRQAPGKGLEWVSGISFRGGMISYVDSVKGRFTISRDNAKNTLYLQMNSLKPEDTAVYYCAKNSGSSRSNALDAWGQGTLVTVSS
VL: LNFMLTQPPSVSGSPGQKFTIRCTGSFRSDSYVNWYQQLPGTAPKLLINYDDRRVSGVPSRFSGSKSGNSASLTIDGLQAEDEAEYYCSFWDHTFGGHVFGGGTKLTVLG
notes: Fab; also called 28f10(24A3)
As usually defined, the koff is a measure of how fast the partners let go of each other. In general, Kd refers to a measure of binding affinity in units of concentration. B1: the koff came to 7.6e-05 s⁻¹ in [3], 8.42e-05 s⁻¹ in [4], 0.00011 s⁻¹ in [5] and 4.8e-05 s⁻¹ in test [6]. Moreover, the Kd in test [5] is 590 pM; in [6] it was 220 pM. Further, the ratio bact/euk in [7] stood at 1.2. Moreover, the average binding with human IL-6 is 286.

B2: Fab 28B6 (Fab, V domains shown)
VH: QVQLVESGGGLVQPGGSLRLSCAASGFTFSNYYMTWVRQAPGKGLEWVSSIYSFSGDTAYADSVKGRFTISRDNAKNTLYLQMNSLKSEDTAVYYCTRNLGGVVVTTNGYDYWGQGTQVTVSS
VL: DIQLTQSPSSLSASLGDRVTITCQASQSISTELSWYQQKPGQTPKLLIYGASRLQTGVPARFSGSGSGTSFTLTISGLEAEDLATYYCLQDYSWPYSFGSGTRL
notes: Fab; also called 28f3(28B6)
Turning to B2, the off-rate constant (koff) in test [3] came out at 3.5e-05 s⁻¹; in test [4], 7.71e-05 s⁻¹. For the same molecule, the ratio bact/euk in test [7] was 1. Further, the average binding with human IL-6 turned out to be 43.

B3: 61B7 (Fab, V domains shown)
VH: ELQLVESGGGLVQPGGSLRLSCAASGFTFSSYAMSWVRQAPGKGPEWVSRISSGGGSAYYADSVKGRFTISRDNAKNTLYLQMNSLKPEDTAVYYCANRAGWGMGDYWGQGTQVTVSS
VL: QTVVTQEPSLSVSPGGTVTLTCGLSSGSVTASNYPGWFQQTPGQAPRALIYSTNDRHSGVPSRFSGSISGNKAALTITGAQPEDEADYYCALDIGDITEFGGGTHLTVLG
notes: Fab
By kon is commonly meant a measure of how fast the partners come together. In test [8], B3 gave an equilibrium dissociation constant (Kd) of 160 pM, a koff of 5.7e-05 s⁻¹ and a kon of 350000 M⁻¹ s⁻¹. Further, in test [9], the affinity, expressed as Kd, was 200 pM; the dissociation rate constant (koff) came to 6.6e-05 s⁻¹; the on-rate constant (kon) came to 330000 M⁻¹ s⁻¹. In [10], this molecule showed an Average binding (RU) of 597 RU.

B4: Fab 111A7 with the CDR3 methionine changed to D (Fab, V domains shown)
VH: EVQLLESGGGLVQPGGSLRLSCAASGFTFSSYAMSWVRQAPGKGPEWVSRISAGGGSTYYGDSVKGRFTISRDNSKNTLYLQMNSLRAEDTAVYYCANRAGWGDGDYWGQGTLVTVSS
VL: QTVVTQEPSFSVSPGGTVTLTCGLSSGSVTASNYPGWYQQTPGQAPRALIYSTNDRHSGVPDRFSGSISGNKAALTITGAQAEDEADYYCALDIGDITEFGGGTQLTVL
In turn, B4 showed a koff in test [11] of 0.000234 s⁻¹. This molecule showed an average binding in test [12] of 112.

B5: Fab 111A7 with the CDR3 methionine changed to Y (Fab, V domains shown)
VH: EVQLLESGGGLVQPGGSLRLSCAASGFTFSSYAMSWVRQAPGKGPEWVSRISAGGGSTYYGDSVKGRFTISRDNSKNTLYLQMNSLRAEDTAVYYCANRAGWGYGDYWGQGTLVTVSS
VL: QTVVTQEPSFSVSPGGTVTLTCGLSSGSVTASNYPGWYQQTPGQAPRALIYSTNDRHSGVPDRFSGSISGNKAALTITGAQAEDEADYYCALDIGDITEFGGGTQLTVL
Turning to B5, in test [11], the koff turned out to be 0.000158 s⁻¹. The average binding in [12] came to 104.

B6: Fab 24G3 (Fab, V domains shown)
VH: QLQVVESGGGLVQPGSSLRLSCGASGFTFSSHRMYWVRQPPGKGLEWVSAISSSGVSTYYADSVKGRFTISRDNAKNTVYLQMNSLKPEDTALYYCKRRTWYGGEYDYWGQGTQVTVSS
VL: QTVVTQEPSLSVSPGGTVTLTCGLSSGSVTASNYPGWFQQTPGQAPRALIYSTNDRHSGVPSRFSGSISGNKAALTITGAQPEDEADYYCALDIGDITEFGGGTHLTVLG
notes: Fab; also called 28g12(24G3)
Turning to B6, the koff in [3] came out at 7.52e-05 s⁻¹; in [4] it was 0.000112 s⁻¹. The ratio bact/euk in [7] amounted to 0.96. The same molecule gave an average binding in the test with human IL-6 of 46.

B7: Fab 111A7 with the CDR3 methionine changed to G (Fab, V domains shown)
VH: EVQLLESGGGLVQPGGSLRLSCAASGFTFSSYAMSWVRQAPGKGPEWVSRISAGGGSTYYGDSVKGRFTISRDNSKNTLYLQMNSLRAEDTAVYYCANRAGWGGGDYWGQGTLVTVSS
VL: QTVVTQEPSFSVSPGGTVTLTCGLSSGSVTASNYPGWYQQTPGQAPRALIYSTNDRHSGVPDRFSGSISGNKAALTITGAQAEDEADYYCALDIGDITEFGGGTQLTVL
With B7, in [11], the koff was 0.000205 s⁻¹. The molecule also registered an average binding in [12] of 109.

B8: 61H7 (antibody, V domains shown)
VH: EVQLVESGGGLVQPGGSLRLSCAASGFTFSSYRMYWVRQPPGKGLEWVSAISAGGGSTYYGDSVKGRFTISRDNAKNTVYLQMNSLKPEDTAVYYCANRAGWGMGDYWGQGTQVTVSS
VL: QTVVTQEPSLSVSPGGTVTLTCGLSSGSVTASNYPGWFQQTPGQAPRALIYSTNDRHSGVPSRFSGSISGNKAALTITGAQPEDEADYYCALDIGDITEFGGGTHLTVLG
On to B8, for which, in [13], the “IC 50, B9 cell proliferation (batch 12.8)” value worked out at 1.83 pM and the “IC 50, B9 cell proliferation (batch A8.11)” value stood at 1.57 pM. In test [14], the “IC50, 7TD1 cells (batch A8.11)” value came to 3.48 pM and the “Potency relative to 68F2, 7TD1 cells (batch A8.11)” value worked out at 0.19. Moreover, the “IC50 (read off the curve), B9 cell proliferation” value in [15] is ~1 pM.

B9: Fab 61H7 (Fab, V domains shown)
VH: EVQLVESGGGLVQPGGSLRLSCAASGFTFSSYRMYWVRQPPGKGLEWVSAISAGGGSTYYGDSVKGRFTISRDNAKNTVYLQMNSLKPEDTAVYYCANRAGWGMGDYWGQGTQVTVSS
VL: QTVVTQEPSLSVSPGGTVTLTCGLSSGSVTASNYPGWFQQTPGQAPRALIYSTNDRHSGVPSRFSGSISGNKAALTITGAQPEDEADYYCALDIGDITEFGGGTHLTVLG
notes: Fab; also called pur61H7; 61H7 Fab
Regarding B9, the ratio bact/euk in test [16] stood at 1.13. Further, the figures for the koff in test [17] and in test [18] were 3.68e-05 s⁻¹ and 4.22e-05 s⁻¹, respectively.

B10: 129D3 (germlined variant of 68F2), full-length IgG1 (antibody, V domains shown)
VH: EVQLQESGPGLVKPSQTLSLTCTVSGGSITSRYYAWSWIRQPPGKGLEWIGVIDYDGDTYYSPSLKSRVSISWDTSKNQFSLKLSSVTPADTAVYYCARDPDVVTGFHYDYWGQGTMVTVSS
VL: QSALTQPPSVSGTPGQSVTISCAGANNDIGTYAYVSWYQQLPGTAPKLMIYKVTTRASGIPDRFSGSKSGNTASLTISGLQAEDEADYYCASYRNFNNAVFGTGTKLTVL
As to B10, in test [14], the “IC50, 7TD1 cells (129D3#A1.1)” value is 0.25 pM; the “IC50, 7TD1 cells (129D3U#15.1)” value is 0.23 pM; the “Potency relative to 68F2, 7TD1 cells (129D3#A1.1)” value is 2.65; the “Potency relative to 68F2, 7TD1 cells (129D3U#15.1)” value is 2.91. Also, in test [19], the “IC50, 7TD1 proliferation assay, exp 22.06” value came to 0.791 pM; the “IC50, 7TD1 proliferation assay, exp 29.06” value came out at 0.574 pM; the “Rel. Potency, 7TD1, exp 29.06” value was 0.98. Moreover, in test [15], the “IC50 (read off the curve), B9 cell proliferation” value was ~0.06 pM.

B11: 55H1 (Fab, V domains shown)
VH: EVQLVESGGGLVQPGGSLRLSCAASGFTFSSYAMSWVRQAPGKGLEWVSRISSGGISTYYADSVKGRFTISRDNAKNTLYLQMNSLKPEDTAVYYCVRYAWGVQWAFDFWGQGTQVTVSS
VL: AQSVVTQPPSVSGSPGKTVTISCAGTSSDVGYGNYVSWYQQLPGMAPKLLIYDVSKRASGIADRFSGSKSGNTASLTISGLQSEDEADYVCASYRRGGTAVFGGGTHLTVLG
Turning to B11, in test [10], the Average binding (RU) was 773 RU and 770 RU and 873 RU.

B12: B-E8 (IL-6 neutralizing benchmark antibody) (antibody, from another filing, V domains shown)
VH: QVTLKESGPGILKPSQTLSLTCSFSGFSLSTSGMGVGWIRQPSGKGLEWLAHIWWDDDKYYNPSLKSQLTISKDTSRNQVFLKITSVDTADTATYYCARSYDDYLYYALDYWGQGTSVTVSS
VL: DIVMTQSPATLSVTPGDRVSLSCRASQSISDYLHWYQQKSHESPRLLIKSVSQSISGIPSRFSGSGSGSDFTLSINSVEPEDVGVYYCQNGHSFPLTFGAGTKLELK
In [1], B12 returned an IC50 (read off the curve), B9 cell proliferation of 8 pM. In test [20], the IC 50, B9 cell proliferation was 5.11 pM and the Rel. potency, B9 cells came to 0.2.

For the origin of these results see patent US20220073604A1 (ARGENX BVBA, published 2022).
